# In patent US20240016902A1:
# Legend:
# PRMT5 [1] = molecular target: PRMT5 (UniProt O14744); assay: Flag-IP from HeLa cell lysate, mass spectrometry of eluate
# TUBB4B [2] = molecular target: TUBB4B (UniProt P68371); assay: as above
# TUBA1B [3] = molecular target: TUBA1B (UniProt P68363); assay: as above
# FLNA [4] = molecular target: FLNA (UniProt P21333); assay: as above
# [5] = molecular target: SPTAN1 (accession Q13813-2) (UniProt Q13813); assay: as above
# SPTBN1 [6] = molecular target: SPTBN1 (UniProt Q01082); assay: as above
# Sequence of SPTBN1 (Q01082 2-2364 limits assumed): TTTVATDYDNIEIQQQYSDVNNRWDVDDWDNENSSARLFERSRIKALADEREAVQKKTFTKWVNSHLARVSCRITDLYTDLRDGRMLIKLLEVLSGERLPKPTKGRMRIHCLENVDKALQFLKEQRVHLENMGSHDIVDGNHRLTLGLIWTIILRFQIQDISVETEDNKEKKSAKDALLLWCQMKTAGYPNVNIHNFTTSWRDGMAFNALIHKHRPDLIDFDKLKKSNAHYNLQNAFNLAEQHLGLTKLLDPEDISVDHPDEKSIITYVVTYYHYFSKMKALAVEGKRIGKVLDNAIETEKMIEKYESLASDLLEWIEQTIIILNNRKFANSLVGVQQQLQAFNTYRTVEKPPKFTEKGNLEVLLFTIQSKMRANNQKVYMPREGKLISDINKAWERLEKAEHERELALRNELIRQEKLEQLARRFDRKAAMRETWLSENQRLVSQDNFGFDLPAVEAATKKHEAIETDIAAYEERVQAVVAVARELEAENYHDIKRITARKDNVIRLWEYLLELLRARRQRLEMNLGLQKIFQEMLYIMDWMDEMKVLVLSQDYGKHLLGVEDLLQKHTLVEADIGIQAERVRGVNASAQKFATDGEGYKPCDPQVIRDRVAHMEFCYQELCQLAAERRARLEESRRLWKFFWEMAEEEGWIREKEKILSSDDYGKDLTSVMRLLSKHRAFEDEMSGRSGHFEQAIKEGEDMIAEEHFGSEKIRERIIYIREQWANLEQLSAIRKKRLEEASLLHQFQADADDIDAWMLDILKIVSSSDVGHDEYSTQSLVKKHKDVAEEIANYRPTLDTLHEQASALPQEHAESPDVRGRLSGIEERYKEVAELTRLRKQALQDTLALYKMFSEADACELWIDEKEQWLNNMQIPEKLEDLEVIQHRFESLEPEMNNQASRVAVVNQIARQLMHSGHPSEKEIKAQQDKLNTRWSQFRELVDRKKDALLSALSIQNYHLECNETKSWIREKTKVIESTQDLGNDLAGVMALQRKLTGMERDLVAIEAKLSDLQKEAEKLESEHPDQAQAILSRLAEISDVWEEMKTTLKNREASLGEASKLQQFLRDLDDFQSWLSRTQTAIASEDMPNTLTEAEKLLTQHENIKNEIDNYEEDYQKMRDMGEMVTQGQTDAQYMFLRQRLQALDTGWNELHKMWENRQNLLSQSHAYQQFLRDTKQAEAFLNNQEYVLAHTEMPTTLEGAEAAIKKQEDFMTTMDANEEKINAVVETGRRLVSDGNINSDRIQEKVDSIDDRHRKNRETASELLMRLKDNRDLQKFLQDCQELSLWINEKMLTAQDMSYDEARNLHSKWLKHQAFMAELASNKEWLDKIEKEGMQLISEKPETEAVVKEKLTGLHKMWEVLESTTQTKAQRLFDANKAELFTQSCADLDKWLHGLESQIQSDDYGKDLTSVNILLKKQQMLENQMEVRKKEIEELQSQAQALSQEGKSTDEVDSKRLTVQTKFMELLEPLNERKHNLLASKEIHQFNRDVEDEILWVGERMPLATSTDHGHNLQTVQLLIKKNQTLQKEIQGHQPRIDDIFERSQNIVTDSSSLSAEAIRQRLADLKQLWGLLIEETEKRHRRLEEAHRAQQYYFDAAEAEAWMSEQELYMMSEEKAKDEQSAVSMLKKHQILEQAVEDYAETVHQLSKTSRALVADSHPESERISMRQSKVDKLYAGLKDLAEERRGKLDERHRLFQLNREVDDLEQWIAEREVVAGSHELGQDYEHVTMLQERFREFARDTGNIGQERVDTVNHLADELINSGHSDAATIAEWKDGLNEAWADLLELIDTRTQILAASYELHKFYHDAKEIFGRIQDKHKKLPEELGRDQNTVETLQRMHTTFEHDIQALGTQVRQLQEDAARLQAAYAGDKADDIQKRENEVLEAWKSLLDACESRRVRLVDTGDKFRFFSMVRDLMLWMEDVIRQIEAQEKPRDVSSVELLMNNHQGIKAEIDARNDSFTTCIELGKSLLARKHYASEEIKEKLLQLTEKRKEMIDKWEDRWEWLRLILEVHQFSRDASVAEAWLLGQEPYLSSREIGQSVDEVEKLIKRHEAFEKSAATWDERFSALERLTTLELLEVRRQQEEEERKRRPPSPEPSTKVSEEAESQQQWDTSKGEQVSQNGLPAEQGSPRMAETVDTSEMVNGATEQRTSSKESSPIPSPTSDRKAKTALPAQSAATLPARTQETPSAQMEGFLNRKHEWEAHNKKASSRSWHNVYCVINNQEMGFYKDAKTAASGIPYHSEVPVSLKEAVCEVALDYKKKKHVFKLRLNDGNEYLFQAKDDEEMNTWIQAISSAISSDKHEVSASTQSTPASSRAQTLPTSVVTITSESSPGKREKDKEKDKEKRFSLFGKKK
# HSPA1A = HSPA1A (UniProt P0DMV8); assay: as above
# TUBA1C [7] = molecular target: TUBA1C (UniProt Q9BQE3); assay: as above
# Sequence of TUBA1C (Q9BQE3 whole entry): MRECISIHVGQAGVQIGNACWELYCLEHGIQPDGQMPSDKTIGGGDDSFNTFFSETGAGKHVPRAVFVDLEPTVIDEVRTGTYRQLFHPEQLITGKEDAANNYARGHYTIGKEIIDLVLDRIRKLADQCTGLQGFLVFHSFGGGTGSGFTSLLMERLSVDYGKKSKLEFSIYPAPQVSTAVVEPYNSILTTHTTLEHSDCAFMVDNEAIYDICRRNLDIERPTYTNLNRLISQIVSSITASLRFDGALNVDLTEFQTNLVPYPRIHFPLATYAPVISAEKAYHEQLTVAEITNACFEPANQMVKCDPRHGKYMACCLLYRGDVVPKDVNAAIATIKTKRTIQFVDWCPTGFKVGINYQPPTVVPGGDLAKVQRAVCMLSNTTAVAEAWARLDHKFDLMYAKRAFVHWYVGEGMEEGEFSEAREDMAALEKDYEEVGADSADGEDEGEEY
# HSPA8 [8] = molecular target: HSPA8 (UniProt P11142); assay: as above
# TUBB [9] = molecular target: TUBB (UniProt P07437); assay: as above
# KRT1 = KRT1 (UniProt P04264); assay: as above
# EIF4B [10] = molecular target: EIF4B (UniProt P23588); assay: as above
# PRMT5 [11] = molecular target: PRMT5 (UniProt O14744); assay: Flag-IP from HepG2 cell lysate, mass spectrometry of eluate
# TUBB4B [12] = molecular target: TUBB4B (UniProt P68371); assay: as above
# TUBA1B [13] = molecular target: TUBA1B (UniProt P68363); assay: as above
# FLNA [14] = molecular target: FLNA (UniProt P21333); assay: as above
# SPTBN1 [15] = molecular target: SPTBN1 (UniProt Q01082); assay: as above
# [16] = molecular target: SPTAN1 (accession Q13813-3) (UniProt Q13813); assay: as above
# TUBA1C [17] = molecular target: TUBA1C (UniProt Q9BQE3); assay: as above
# WDR77 [18] = molecular target: WDR77 (UniProt Q9BQA1); assay: as above
# Sequence of WDR77 (Q9BQA1 whole entry): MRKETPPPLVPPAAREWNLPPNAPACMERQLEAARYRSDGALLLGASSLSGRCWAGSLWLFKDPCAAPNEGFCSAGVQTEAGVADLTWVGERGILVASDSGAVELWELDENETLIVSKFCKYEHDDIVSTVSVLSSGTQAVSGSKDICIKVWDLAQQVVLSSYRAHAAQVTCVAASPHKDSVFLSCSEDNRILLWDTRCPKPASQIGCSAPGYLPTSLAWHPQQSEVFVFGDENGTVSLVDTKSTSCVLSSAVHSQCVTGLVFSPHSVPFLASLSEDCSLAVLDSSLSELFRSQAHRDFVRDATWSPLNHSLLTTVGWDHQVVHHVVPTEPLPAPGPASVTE
# POTEE = POTEE (UniProt Q6S8J3); assay: as above
# HSPA8 [19] = molecular target: HSPA8 (UniProt P11142); assay: as above
# TUBB [20] = molecular target: TUBB (UniProt P07437); assay: as above
# WDR77 [21] = molecular target: WDR77 (UniProt Q9BQA1); assay: Flag-IP from HeLa cell lysate, mass spectrometry of eluate
# TUBA1A = TUBA1A (UniProt Q71U36); assay: as above
# [22] = molecular target: SPTAN1 (accession Q13813) (Homo sapiens (Human)) (UniProt Q13813); assay: as above
# [23] = molecular target: SPTAN1 (accession Q13813-2) (UniProt Q13813); assay: Flag-IP from HepG2 cell lysate, mass spectrometry of eluate
# VIL1 = VIL1 (UniProt P09327); assay: as above
# DBN1 = DBN1 (UniProt Q16643); assay: as above
# EIF4B [24] = molecular target: EIF4B (UniProt P23588); assay: as above
# Sequence of PRMT5 (O14744 2-637 limits assumed): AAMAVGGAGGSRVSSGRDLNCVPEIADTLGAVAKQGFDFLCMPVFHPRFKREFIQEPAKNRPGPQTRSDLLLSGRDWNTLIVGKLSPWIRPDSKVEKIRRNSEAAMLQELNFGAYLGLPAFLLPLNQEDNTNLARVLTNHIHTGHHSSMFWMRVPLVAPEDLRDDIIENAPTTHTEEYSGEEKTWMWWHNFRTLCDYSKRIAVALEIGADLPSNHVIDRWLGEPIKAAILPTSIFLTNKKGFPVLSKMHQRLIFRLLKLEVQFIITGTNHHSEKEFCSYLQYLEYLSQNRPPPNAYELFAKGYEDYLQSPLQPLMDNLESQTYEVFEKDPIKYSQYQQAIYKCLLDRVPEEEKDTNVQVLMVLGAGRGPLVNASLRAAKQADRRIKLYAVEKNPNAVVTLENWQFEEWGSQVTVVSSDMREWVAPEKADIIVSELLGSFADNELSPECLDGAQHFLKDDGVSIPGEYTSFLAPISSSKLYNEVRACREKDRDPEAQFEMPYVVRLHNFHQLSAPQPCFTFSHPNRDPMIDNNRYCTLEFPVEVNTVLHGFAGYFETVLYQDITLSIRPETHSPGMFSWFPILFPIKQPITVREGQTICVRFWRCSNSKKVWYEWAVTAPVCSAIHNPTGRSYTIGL
# Sequence of TUBA1B (P68363 whole entry): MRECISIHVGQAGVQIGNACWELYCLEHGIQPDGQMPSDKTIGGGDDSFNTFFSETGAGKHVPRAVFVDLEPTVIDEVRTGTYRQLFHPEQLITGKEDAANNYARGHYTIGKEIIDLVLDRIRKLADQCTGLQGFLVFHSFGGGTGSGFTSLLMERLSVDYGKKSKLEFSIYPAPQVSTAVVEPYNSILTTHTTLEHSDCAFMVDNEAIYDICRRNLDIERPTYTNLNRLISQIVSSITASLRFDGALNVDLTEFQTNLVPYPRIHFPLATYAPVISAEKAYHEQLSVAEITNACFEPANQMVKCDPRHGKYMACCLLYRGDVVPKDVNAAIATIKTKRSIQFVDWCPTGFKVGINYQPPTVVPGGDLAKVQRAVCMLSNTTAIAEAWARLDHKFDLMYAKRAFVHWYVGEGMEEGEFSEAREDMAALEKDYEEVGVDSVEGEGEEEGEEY
# Sequence of TUBB4B (P68371 whole entry): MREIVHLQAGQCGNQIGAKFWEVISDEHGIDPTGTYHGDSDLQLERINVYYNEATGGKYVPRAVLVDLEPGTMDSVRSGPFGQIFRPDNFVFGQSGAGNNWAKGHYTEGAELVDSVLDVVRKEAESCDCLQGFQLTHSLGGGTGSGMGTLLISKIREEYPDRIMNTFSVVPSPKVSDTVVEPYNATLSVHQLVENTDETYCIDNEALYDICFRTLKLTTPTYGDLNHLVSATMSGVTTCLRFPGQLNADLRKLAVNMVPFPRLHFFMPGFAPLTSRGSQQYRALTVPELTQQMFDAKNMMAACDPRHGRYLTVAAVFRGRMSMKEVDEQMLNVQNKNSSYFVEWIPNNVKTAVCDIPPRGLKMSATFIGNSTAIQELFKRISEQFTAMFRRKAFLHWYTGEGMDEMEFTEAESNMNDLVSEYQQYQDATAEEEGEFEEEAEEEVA
substance,measurement,setting,value
"Flag-OsRDR1 (rice, Oryza sativa, RNA-dependent RNA polymerase 1 with Flag tag) (from UniProt Q0DXS3 1-740) (enzyme)",Coverage (%),PRMT5 [1],37%
same,Length of peptide,PRMT5 [1],15
same,Coverage (%),TUBB4B [2],38%
same,Length of peptide,TUBB4B [2],14
same,Coverage (%),TUBA1B [3],40%
same,Length of peptide,TUBA1B [3],12
same,Coverage (%),FLNA [4],12%
same,Length of peptide,FLNA [4],20
same,Coverage (%),[5],9%
same,Length of peptide,[5],16
same,Coverage (%),SPTBN1 [6],10%
same,Length of peptide,SPTBN1 [6],16
same,Coverage (%),HSPA1A,26%
same,Length of peptide,HSPA1A,13
same,Coverage (%),TUBA1C [7],35%
same,Length of peptide,TUBA1C [7],11
same,Coverage (%),HSPA8 [8],36%
same,Length of peptide,HSPA8 [8],17
same,Coverage (%),TUBB [9],42%
same,Length of peptide,TUBB [9],15
same,Coverage (%),KRT1,32%
same,Length of peptide,KRT1,14
same,Coverage (%),EIF4B [10],26%
same,Length of peptide,EIF4B [10],9
same,Coverage (%),PRMT5 [11],61%
same,Length of peptide,PRMT5 [11],31
same,Coverage (%),TUBB4B [12],66%
same,Coverage (%),TUBA1B [13],62%
same,Length of peptide,TUBA1B [13],19
same,Coverage (%),FLNA [14],32%
same,Length of peptide,FLNA [14],50
same,Coverage (%),SPTBN1 [15],48%
same,Length of peptide,SPTBN1 [15],81
same,Coverage (%),[16],47%
same,Length of peptide,[16],85
same,Coverage (%),TUBA1C [17],55%
same,Length of peptide,TUBA1C [17],17
same,Coverage (%),WDR77 [18],64%
same,Length of peptide,WDR77 [18],15
same,Coverage (%),POTEE,11%
same,Length of peptide,POTEE,9
same,Coverage (%),HSPA8 [19],68%
same,Length of peptide,HSPA8 [19],34
same,Coverage (%),TUBB [20],66%
same,Length of peptide,TUBB [20],24
Flag-AtRDR1 (Arabidopsis thaliana RNA-dependent RNA polymerase 1 with Flag tag) (from UniProt Q9LQV2 1-1107) (enzyme),Coverage (%),PRMT5 [1],29%
same,Length of peptide,PRMT5 [1],12
same,Coverage (%),TUBB4B [2],25%
same,Length of peptide,TUBB4B [2],9
same,Coverage (%),FLNA [4],20%
same,Length of peptide,FLNA [4],36
same,Coverage (%),SPTBN1 [6],12%
same,Coverage (%),HSPA1A,17%
same,Length of peptide,HSPA1A,10
same,Coverage (%),TUBA1C [7],31%
same,Length of peptide,TUBA1C [7],10
same,Coverage (%),WDR77 [21],44%
same,Length of peptide,WDR77 [21],10
same,Coverage (%),TUBA1A,36%
same,Coverage (%),TUBB [9],29%
same,Length of peptide,TUBB [9],10
same,Coverage (%),[22],16%
same,Length of peptide,[22],29
same,Coverage (%),EIF4B [10],33%
same,Length of peptide,EIF4B [10],20
same,Coverage (%),PRMT5 [11],59%
same,Length of peptide,PRMT5 [11],31
same,Coverage (%),FLNA [14],27%
same,Length of peptide,FLNA [14],38
same,Coverage (%),[23],44%
same,Length of peptide,[23],83
same,Coverage (%),VIL1,46%
same,Length of peptide,VIL1,26
same,Coverage (%),SPTBN1 [15],45%
same,Length of peptide,SPTBN1 [15],72
same,Coverage (%),DBN1,36%
same,Coverage (%),WDR77 [18],66%
same,Coverage (%),POTEE,9%
same,Length of peptide,POTEE,7
same,Coverage (%),HSPA8 [19],56%
same,Length of peptide,HSPA8 [19],27
same,Coverage (%),EIF4B [24],37%
same,Length of peptide,EIF4B [24],17
